Experimental data as given in US20170015742A1 (published 2017).

B1: CODV020 (bispecific antibody, human IgG1, kappa, L234A L235A)
heavy: EFVLTQSPGTLSLSPGERATLSCERSSGDIGDSYVSWYQQKPGQAPRLVIYADDQRPSGIPDRFSGSGSGTDFTLTISRLEPEDFAVYYCQSYDINIDIVFGGGTKVEIKGGGSGGGGEVQLVQSGSELKKPGASVKVSCKASGYTFTNYGMYWVRQAPGQGLEWMGWINTETGKPTYADDFKGRFVFSLDTSVSTAYLQISSLKAEDTAVYYCARTNYYYRSYIFYFDYWGQGTMVTVSSLGGCGGGSASTKGPSVFPLAPSSKSTSGGTAALGCLVKDYFPEPVTVSWNSGALTSGVHTFPAVLQSSGLYSLSSVVTVPSSSLGTQTYICNVNHKPSNTKVDKKVEPKSCDKTHTCPPCPAPEAAGGPSVFLFPPKPKDTLMISRTPEVTCVVVDVSHEDPEVKFNWYVDGVEVHNAKTKPREEQYNSTYRVVSVLTVLHQDWLNGKEYKCKVSNKALPAPIEKTISKAKGQPREPQVYTLPPSREEMTKNQVSLTCLVKGFYPSDIAVEWESNGQPENNYKTTPPVLDSDGSFFLYSKLTVDKSRWQQGNVFSCSVMHEALHNAYTQKSLSLSPGK
light: DTVLTQSPATLSLSPGERATLSCRASESVSTHMHWYQQKPGQAPRLLIYGASNLESGVPARFSGSGSGTDFTLTISSLEPEDFAVYFCQQSWNDPFTFGQGTKLEIKGGGSGGGGEVTLRESGPALVKPTQTLTLTCTFSGFSLSTYGMGVGWIRQPPGKALEWLANIWWDDDKYYNPSLKNRLTISKDTSKNQVVLTMTNMDPVDTATYYCARIESIGTTYSFDYWGQGTMVTVSSLGGCGGGSRTVAAPSVFIFPPSDEQLKSGTASVVCLLNNFYPREAKVQWKVDNALQSGNSQESVTEQDSKDSTYSLSSTLTLSKADYEKHKVYACEVTHQGLSSPVTKSFNRGEC
notes: Anti-human VEGF-A/anti-human PDGF-BB cross-over DVD-Ig (CO-DVD-Ig); also called PR-1571836
B2: CODV018 (bispecific antibody, human IgG1, kappa, L234A L235A)
heavy: EFVLTQSPGTLSLSPGERATLSCERSSGDIGDSYVSWYQQKPGQAPRLVIYADDQRPSGIPDRFSGSGSGTDFTLTISRLEPEDFAVYYCQSYDINIDIVFGGGTKVEIKGGGSGGGDTVLTQSPATLSLSPGERATLSCRASESVSTHMHWYQQKPGQAPRLLIYGASNLESGVPARFSGSGSGTDFTLTISSLEPEDFAVYFCQQSWNDPFTFGQGTKLEIKGGGSGASTKGPSVFPLAPSSKSTSGGTAALGCLVKDYFPEPVTVSWNSGALTSGVHTFPAVLQSSGLYSLSSVVTVPSSSLGTQTYICNVNHKPSNTKVDKKVEPKSCDKTHTCPPCPAPEAAGGPSVFLFPPKPKDTLMISRTPEVTCVVVDVSHEDPEVKFNWYVDGVEVHNAKTKPREEQYNSTYRVVSVLTVLHQDWLNGKEYKCKVSNKALPAPIEKTISKAKGQPREPQVYTLPPSREEMTKNQVSLTCLVKGFYPSDIAVEWESNGQPENNYKTTPPVLDSDGSFFLYSKLTVDKSRWQQGNVFSCSVMHEALHNAYTQKSLSLSPGK
light: EVQLVQSGSELKKPGASVKVSCKASGYTFTNYGMYWVRQAPGQGLEWMGWINTETGKPTYADDFKGRFVFSLDTSVSTAYLQISSLKAEDTAVYYCARTNYYYRSYIFYFDYWGQGTMVTVSSGEVTLRESGPALVKPTQTLTLTCTFSGFSLSTYGMGVGWIRQPPGKALEWLANIWWDDDKYYNPSLKNRLTISKDTSKNQVVLTMTNMDPVDTATYYCARIESIGTTYSFDYWGQGTMVTVSSGGRTVAAPSVFIFPPSDEQLKSGTASVVCLLNNFYPREAKVQWKVDNALQSGNSQESVTEQDSKDSTYSLSSTLTLSKADYEKHKVYACEVTHQGLSSPVTKSFNRGEC
notes: Anti-human VEGF-A/anti-human PDGF-BB cross-over DVD-Ig (CO-DVD-Ig); also called PR-1571831
B3: CODV016 (bispecific antibody, human IgG1, kappa, L234A L235A)
heavy: EVQLVQSGSELKKPGASVKVSCKASGYTFTNYGMYWVRQAPGQGLEWMGWINTETGKPTYADDFKGRFVFSLDTSVSTAYLQISSLKAEDTAVYYCARTNYYYRSYIFYFDYWGQGTMVTVSSGGGGSGGGEFVLTQSPGTLSLSPGERATLSCERSSGDIGDSYVSWYQQKPGQAPRLVIYADDQRPSGIPDRFSGSGSGTDFTLTISRLEPEDFAVYYCQSYDINIDIVFGGGTKVEIKGGGSGASTKGPSVFPLAPSSKSTSGGTAALGCLVKDYFPEPVTVSWNSGALTSGVHTFPAVLQSSGLYSLSSVVTVPSSSLGTQTYICNVNHKPSNTKVDKKVEPKSCDKTHTCPPCPAPEAAGGPSVFLFPPKPKDTLMISRTPEVTCVVVDVSHEDPEVKFNWYVDGVEVHNAKTKPREEQYNSTYRVVSVLTVLHQDWLNGKEYKCKVSNKALPAPIEKTISKAKGQPREPQVYTLPPSREEMTKNQVSLTCLVKGFYPSDIAVEWESNGQPENNYKTTPPVLDSDGSFFLYSKLTVDKSRWQQGNVFSCSVMHEALHNAYTQKSLSLSPGK
light: EVTLRESGPALVKPTQTLTLTCTFSGFSLSTYGMGVGWIRQPPGKALEWLANIWWDDDKYYNPSLKNRLTISKDTSKNQVVLTMTNMDPVDTATYYCARIESIGTTYSFDYWGQGTMVTVSSGGGGSDTVLTQSPATLSLSPGERATLSCRASESVSTHMHWYQQKPGQAPRLLIYGASNLESGVPARFSGSGSGTDFTLTISSLEPEDFAVYFCQQSWNDPFTFGQGTKLEIKGGSRTVAAPSVFIFPPSDEQLKSGTASVVCLLNNFYPREAKVQWKVDNALQSGNSQESVTEQDSKDSTYSLSSTLTLSKADYEKHKVYACEVTHQGLSSPVTKSFNRGEC
notes: Anti-human VEGF-A/anti-human PDGF-BB cross-over DVD-Ig (CO-DVD-Ig); also called PR-1571828
B4: CODV019 (bispecific antibody, human IgG1, kappa, L234A L235A)
heavy: DTVLTQSPATLSLSPGERATLSCRASESVSTHMHWYQQKPGQAPRLLIYGASNLESGVPARFSGSGSGTDFTLTISSLEPEDFAVYFCQQSWNDPFTFGQGTKLEIKGGGSGGGGEVTLRESGPALVKPTQTLTLTCTFSGFSLSTYGMGVGWIRQPPGKALEWLANIWWDDDKYYNPSLKNRLTISKDTSKNQVVLTMTNMDPVDTATYYCARIESIGTTYSFDYWGQGTMVTVSSLGGCGGGSASTKGPSVFPLAPSSKSTSGGTAALGCLVKDYFPEPVTVSWNSGALTSGVHTFPAVLQSSGLYSLSSVVTVPSSSLGTQTYICNVNHKPSNTKVDKKVEPKSCDKTHTCPPCPAPEAAGGPSVFLFPPKPKDTLMISRTPEVTCVVVDVSHEDPEVKFNWYVDGVEVHNAKTKPREEQYNSTYRVVSVLTVLHQDWLNGKEYKCKVSNKALPAPIEKTISKAKGQPREPQVYTLPPSREEMTKNQVSLTCLVKGFYPSDIAVEWESNGQPENNYKTTPPVLDSDGSFFLYSKLTVDKSRWQQGNVFSCSVMHEALHNAYTQKSLSLSPGK
light: EFVLTQSPGTLSLSPGERATLSCERSSGDIGDSYVSWYQQKPGQAPRLVIYADDQRPSGIPDRFSGSGSGTDFTLTISRLEPEDFAVYYCQSYDINIDIVFGGGTKVEIKGGGSGGGGEVQLVQSGSELKKPGASVKVSCKASGYTFTNYGMYWVRQAPGQGLEWMGWINTETGKPTYADDFKGRFVFSLDTSVSTAYLQISSLKAEDTAVYYCARTNYYYRSYIFYFDYWGQGTMVTVSSLGGCGGGSRTVAAPSVFIFPPSDEQLKSGTASVVCLLNNFYPREAKVQWKVDNALQSGNSQESVTEQDSKDSTYSLSSTLTLSKADYEKHKVYACEVTHQGLSSPVTKSFNRGEC
notes: Anti-human VEGF-A/anti-human PDGF-BB cross-over DVD-Ig (CO-DVD-Ig); also called PR-1571832
B5: CODV017 (bispecific antibody, human IgG1, kappa, L234A L235A)
heavy: DTVLTQSPATLSLSPGERATLSCRASESVSTHMHWYQQKPGQAPRLLIYGASNLESGVPARFSGSGSGTDFTLTISSLEPEDFAVYFCQQSWNDPFTFGQGTKLEIKGGGSGGGEFVLTQSPGTLSLSPGERATLSCERSSGDIGDSYVSWYQQKPGQAPRLVIYADDQRPSGIPDRFSGSGSGTDFTLTISRLEPEDFAVYYCQSYDINIDIVFGGGTKVEIKGGGSGASTKGPSVFPLAPSSKSTSGGTAALGCLVKDYFPEPVTVSWNSGALTSGVHTFPAVLQSSGLYSLSSVVTVPSSSLGTQTYICNVNHKPSNTKVDKKVEPKSCDKTHTCPPCPAPEAAGGPSVFLFPPKPKDTLMISRTPEVTCVVVDVSHEDPEVKFNWYVDGVEVHNAKTKPREEQYNSTYRVVSVLTVLHQDWLNGKEYKCKVSNKALPAPIEKTISKAKGQPREPQVYTLPPSREEMTKNQVSLTCLVKGFYPSDIAVEWESNGQPENNYKTTPPVLDSDGSFFLYSKLTVDKSRWQQGNVFSCSVMHEALHNAYTQKSLSLSPGK
light: EVTLRESGPALVKPTQTLTLTCTFSGFSLSTYGMGVGWIRQPPGKALEWLANIWWDDDKYYNPSLKNRLTISKDTSKNQVVLTMTNMDPVDTATYYCARIESIGTTYSFDYWGQGTMVTVSSGEVQLVQSGSELKKPGASVKVSCKASGYTFTNYGMYWVRQAPGQGLEWMGWINTETGKPTYADDFKGRFVFSLDTSVSTAYLQISSLKAEDTAVYYCARTNYYYRSYIFYFDYWGQGTMVTVSSGGRTVAAPSVFIFPPSDEQLKSGTASVVCLLNNFYPREAKVQWKVDNALQSGNSQESVTEQDSKDSTYSLSSTLTLSKADYEKHKVYACEVTHQGLSSPVTKSFNRGEC
notes: Anti-human VEGF-A/anti-human PDGF-BB cross-over DVD-Ig (CO-DVD-Ig); also called PR-1571830

Each binder was assayed against T1, Human PDGF-BB (human, UniProt P01127 82-190) (assay: SPR (Biacore), method of Example 1.1).
T1 construct: also called hPDGF-BB
T1 sequence (P01127 82-190 limits assumed): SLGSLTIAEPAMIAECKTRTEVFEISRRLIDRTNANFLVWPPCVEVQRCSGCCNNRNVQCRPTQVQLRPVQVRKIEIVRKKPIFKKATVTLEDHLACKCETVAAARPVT
Protocol: (§1) Unreacted moieties on the biosensor surface were blocked with ethanolamine. For kinetic analysis, rate equations derived from the 1:1 Langmuir binding model were fitted simultaneously to multiple antigen injections (using global fit analysis) with the use of Scrubber 2 (BioLogic Software), Biacore Biaevaluation 4.0.1 software or Biacore T100 Evaluation software. Purified antibodies or DVD-Ig molecules were diluted in running buffer for capture across goat anti-human Fc reaction surfaces. Antibodies or DVD-Ig molecules to be captured as a ligand (1 μg/ml) were injected over reaction matrices at a flow rate of 10 μl/minute. During the assay, all measurements were referenced against the capture surface alone (i.e., with no captured antibody or DVD-Ig molecule). […] The equilibrium dissociation constant KD (M) of the reaction between antibodies and the target antigen was then calculated from the kinetic rate constants by the following formula: KD=Koff/Kₒₙ. Binding was recorded as a function of time and kinetic rate constants were calculated. In this assay, on-rates as fast as 10⁶M⁻¹s⁻¹ and off-rates as slow as 10⁻⁶ s⁻¹ could be measured.

Binder | Kd [pM] | kon [M⁻¹ s⁻¹]
B1 | 3.5 | 4.6e+07
B2 | 5.3 | 3.5e+07
B3 | 2.5 | 4.6e+07
B4 | 4.4 | 3.9e+07
B5 | 6.5 | 3e+07

These binders were tested against T2, Human VEGF-A 165 (human, UniProt P15692 207-395) (assay: SPR (Biacore), method of Example 1.1).
T2 construct: also called hVEGF165
T2 sequence (P15692 other isoform, or with tags, fused parts or gaps limits assumed): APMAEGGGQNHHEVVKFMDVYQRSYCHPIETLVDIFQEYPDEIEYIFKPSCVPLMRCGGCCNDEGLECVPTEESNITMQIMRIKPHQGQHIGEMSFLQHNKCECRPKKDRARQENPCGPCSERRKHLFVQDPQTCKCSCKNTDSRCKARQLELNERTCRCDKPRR
Protocol: as §1

Binder | Kd [nM] | kon [M⁻¹ s⁻¹]
B1 | 0.033 | 3.1e+06
B2 | 31 | –
B3 | 0.02 | 2.9e+06
B4 | 0.05 | 2.9e+06
B5 | 57 | –
